Experimental data as given in the supplement of paper PMC10567573.

B1: FAM189A2 (parent)
chain: CALNALTTTVCLVAAALRYLQIFA

Variants of: B1
Assay: protein stability index of a GFP-peptide fusion (GPS, HEK-293T) (PSI 1-6); higher = more stable
Details: c terminus: a fixed tail appended
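Further: lentivirally expressed fusions sorted by FACS into six bins by GFP to DsRed ratio, PSI derived from sequencing read proportions per bin multiplied by bin number.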

Protein stability index of substitutions, site by site:
A15: M 3.68, N 3.15, G 2.9, H 2.6, Q 2.05, C 2.71, W 2.59, K 2.76, R 2.41, Y 3.03, F 4.15, D 3.14, L 2.19, V 3.64, S 3.48, I 3.05, T 1.8
L17: C 3.24, A 1.47, N 3.87, I 4.04, F 3.04, P 2.91, Y 2.25, K 3.29, H 2.72, W 3.15, T 2.14, G 3.97, E 3.03, Q 2.57, M 4.11, V 1.38
Q21: C 2.75, L 3.19, F 2.15, A 3.09, T 3.12, E 3.35, R 1.72, I 2.65, V 2.12, Y 3.35, S 1.64, G 2.9, N 2.02, K 2.07, W 2.74
T7: Q 3.37, M 4.03, D 2.18, F 2.06, G 2.78, R 2.34, A 3.07, P 3.27, C 3.6, Y 3.46, W 2.89, K 1.87, S 2.85, N 3.42, I 3.6
N4: D 2.85, P 2.66, S 3.62, I 2.87, C 2.79, E 2.1, R 3.01, H 3.53, V 3.46, A 1.84, T 2.17, K 2.35, W 2.84, F 2.81, G 2.34
A14: G 2.74, F 3.14, M 3.17, W 1.93, N 3.17, E 3.46, S 4.79, P 3.27, H 4.41, C 4.5, V 1.9, I 3.7, K 2.69, L 3.6, R 2.23, T 3.07, Q 2.2
T9: G 4.16, D 2.65, L 2.69, H 2.19, V 3.39, P 3.2, E 2.63, Q 3.59, F 2.07, C 2.34, A 3.62, Y 2.69, N 2.79, S 3.11, I 2.68
A24: I 2.19, E 2.8, C 3.96, F 2.59, G 4.19, H 3.64, L 2.63, M 2.65, D 2.51, N 1.88
L3: Q 3, T 2.98, E 3.25, R 2.9, N 2.3, W 1.62, H 2.11, S 2, F 3.52, D 3.27, I 1.61, P 3.65, K 1.92, V 2.62, C 4.07
V10: N 2.53, I 2.3, S 4.12, E 3.04, W 2.05, M 1.98, D 4.46, G 4.6, R 1.62, T 2.65, A 2.46, K 2.08, F 1.53, H 3.15, P 2.12, L 3.21, C 1.42, Q 4.03
A5: L 2.77, F 2.29, C 3.07, I 3.46, P 2.7, S 3.5, M 3.65, V 1.92, N 2.07, E 3.02, T 3.6, Q 3.79, K 4.99, R 2.98, Y 3.68
T8: A 3.34, G 1.91, N 3.77, K 1.93, W 3.44, S 2.63, R 2.69, P 2.92, E 4.29, H 2.94, C 2.95, L 1.99, I 3.39, F 3.49, M 2.93
Y19: H 1.98, I 3.74, S 3.45, N 3.25, W 3.75, C 3.41, F 3.29, L 3.58, R 2.4, V 1.9, E 3.73, K 2.19, P 2.86, A 3.25
A16: I 4.22, E 3.27, W 1.55, P 2.79, K 4.22, C 4.04, Y 2.27, T 1.94, S 2.97, V 3.33, R 3.06, N 2.1, D 3.52, L 3.09, H 3.78, F 2.55
I22: H 2.75, K 2.14, P 4.03, M 3.76, T 2.33, R 2.16, V 2.72, N 2.58, G 3.11, W 3.83, L 2.83, A 1.99, Q 2.9, S 3.43, F 2.44, E 3.28, Y 2.44
L12: C 2.39, N 4.01, R 2.39, Y 3.88, G 3.05, I 3.35, E 1.51, K 2.3, T 2.96, W 3.65, A 3.5, F 2.56, P 3.76, M 3.44, H 3.28
L20: R 3.02, T 3.88, Q 3.06, G 2.41, N 2.53, K 3.6, V 1.72, M 3.29, F 2.75, I 2.76
L6: A 2.83, P 3.83, F 1.13, R 2.87, I 1.47, Y 3.27, M 4.19, T 2.87, W 3.2, N 3.48, D 3.49, G 4.13, K 1.77, Q 2.83, C 2.11
R18: G 3.25, Y 3.89, I 3.84, W 2.99, V 3.16, M 1.38, N 3.9, C 3.91, E 3.6, T 2.38, L 2.98, Q 2.72, P 1.82, K 3.85, D 3.02
F23: Y 2.85, H 4.92, L 3.45, K 2.94, D 2.47, I 3.76, E 3.61, C 3.26, M 4.05, P 3.42, R 3.81, N 4.28, S 3.01, Q 4.3, G 4.67, V 4.08, T 2.22
V13: Y 2.68, W 3.96, I 2.9, Q 2.8, L 2.8, T 3, A 2.99, E 3.61, G 3.15, D 2.59, S 2.06, K 2.78, M 2.25, P 2.88, N 2.88, R 3.73, F 3.5
C11: P 2.3, R 3.69, K 3.55, I 4.44, F 3.1, L 3.18, H 1.63, N 1.91, M 2.97, S 2.18, D 2.75, A 3.95, Q 1.41, T 2.74, Y 3.58
